Biological target: T1, C3aR R161A (human, UniProt Q16581 1-482, R161^ECL2A)
T1 sequence: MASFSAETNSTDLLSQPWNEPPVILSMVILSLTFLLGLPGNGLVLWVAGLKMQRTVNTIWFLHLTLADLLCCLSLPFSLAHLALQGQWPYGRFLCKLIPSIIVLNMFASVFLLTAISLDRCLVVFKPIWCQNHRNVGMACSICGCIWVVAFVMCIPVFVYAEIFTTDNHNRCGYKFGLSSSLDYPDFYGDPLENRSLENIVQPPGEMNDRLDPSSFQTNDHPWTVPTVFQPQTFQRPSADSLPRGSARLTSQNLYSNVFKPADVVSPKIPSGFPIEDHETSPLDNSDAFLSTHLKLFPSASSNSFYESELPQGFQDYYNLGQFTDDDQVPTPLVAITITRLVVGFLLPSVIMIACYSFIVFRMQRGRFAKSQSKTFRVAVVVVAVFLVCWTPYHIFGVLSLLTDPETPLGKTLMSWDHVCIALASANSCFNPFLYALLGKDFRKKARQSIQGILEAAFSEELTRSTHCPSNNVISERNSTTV
Test: cell-based or functional assay

decrease of the potency of C3a against the wild type (GloSensor cAMP assay): > 100 fold
B1: His6-SUMOstar-C3a (recombinant human C3a, residues 1-77) (ligand)
chain: not shown

— article doi:10.1101/2023.01.18.524551 (bioRxiv, 2023)
